Measured values published in patent US20230250557A1 (published 2023).
Each block holds one binder with its values, some of them ahead of it.

Assays:
[1] = target: T1, Biotinylated human HER2 antigen comprising a portion of the HER2 extracellular domain (Acro Biosystems) (human, UniProt P04626 23-652, biotinylated (site not stated)); experiment: ELISA, antigen coated at 1 ug/mL, purified scaffold titrated, anti-FLAG-HRP detection
T1 construct: extracellular domain; The ELISA text says only 'antigens' were coated; also called HER2 target
Protocol: (§1) Affinity of binding of individual scaffolds of the invention was estimated by ELISA. Antigens were dissolved in PBS to 1 μg/mL and 100 μl coated onto the surface of each well of a 96 well MaxiSorp Plate (Nunc) at 4° C. overnight. The next day, the wells of the MaxiSorp plate were washed with PBST buffer (PBS containing 0.05% Tween-20) and the wells blocked with 400 μl per well of 5% (w/v) skim milk powder in PBST for 2 hours. This blocking buffer was then discarded and the wells of the plate washed with PBST. […] The diluted target binding scaffold proteins were then transferred to the antigen coated MaxiSorp plate and allowed to bind to the immobilized blocked antigens for 2 hours at room temperature with gentle shaking. Following this, the diluted target binding scaffold protein solution was discarded and the wells of the MaxiSorp plate were washed 4 times with PBST. Then, 100 μl of a 1/4000 diluted solution of anti-FLAG M2 HRP conjugated antibody (Sigma) in PBST containing 2.5% (w/v) skim milk was added to each well and allowed to bind for 1 hour. This was then discarded and the plate washed 4 times with PBST. Then 100 μl of ELISA POD Substrate TMB Kit (HYPER) detection reagent (Nacalai Tesque, Japan) was added per well and the color development reaction stopped by addition of 100 μl of 1M phosphoric acid. Absorbance of each well was read at 450 nm wavelength. The EC₅₀ of binding was calculated from four parameter logistic plots of the measured absorbance values (FIGS. 17A-17B).

[2] = target: T2, Biotinylated human PD-L1 antigen comprising a human IgG1 Fc domain (Acro Biosystems) (human, UniProt Q9NZQ7 19-238, biotinylated (site not stated)); experiment: as above
T2 construct: The ELISA text says only 'antigens' were coated at 1 ug/mL; also called PD-L1 target; not shown: human IgG1 Fc domain
Protocol: as §1

T2 sequence (Q9NZQ7 19-238 limits assumed): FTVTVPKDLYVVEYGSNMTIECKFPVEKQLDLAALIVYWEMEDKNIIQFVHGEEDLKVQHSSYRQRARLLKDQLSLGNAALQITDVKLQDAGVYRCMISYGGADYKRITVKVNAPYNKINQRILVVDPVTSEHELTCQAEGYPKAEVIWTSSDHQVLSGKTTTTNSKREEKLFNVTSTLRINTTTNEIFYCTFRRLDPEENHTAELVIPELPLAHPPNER

EC50 [1]: 65 nM
B1: 4-7D (designed binder)
chain: GSHMVSGKIVVIGSSTGGPRSLDMIIPNLPKNFPAPIVVVQHGHDWSGSSGWGTKSLAQRLDSTSELTVKEAEDGEEVKPGFVYIAPGDFHLGLKAQNGKVFFFLDKSGWVSWGWTNNGVRPAVDFTLDKAAEIYKEKTIAVILTGGRYEGVLLGGDGTKGAFKVKFYGGTVIAEDKETSVVFGMPKSVIEEGYADYVLPAYKIPEKLIELV
notes: CheBc scaffold clone from modified pQE-80L in E. coli, purified on cobalt resin, detected with anti-FLAG

EC50 [1]: 22 nM
B4: 3-7E (designed binder)
chain: GSHMVSGKIVVIGSSTGGPRSLDMIIPNLPKNFPAPIVVVQHGYYWGSWGYEGTKSLAQRLDSTSELTVKEAEDGEEVKPGFVYIAPGDFHLGLKAQNGKVFFFLDKSGRVVDGWDYDGVRPAVDFTLDKAAEIYKEKTIAVILTGGWDTGSELGGDGTKGAFKVKFYGGTVIAEDKETSVVFGMPKSVIEEGYADYVLPAYKIPEKLIELV
notes: as for B1

EC50 [1]: 4 nM
B6: 3-8A (designed binder)
chain: GSHMVSGKIVVIGSSTGGPRSLDMIIPNLPKNFPAPIVVVQHGSWVDGSWTWGTKSLAQRLDSTSELTVKEAEDGEEVKPGFVYIAPGDFHLGLKAQNGKVFFFLDKSGWWNGGYWVTGVRPAVDFTLDKAAEIYKEKTIAVILTGGVNLGLYNGGDGTKGAFKVKFYGGTVIAEDKETSVVFGMPKSVIEEGYADYVLPAYKIPEKLIELV
notes: as for B1

Further lines, the binder ahead of its results:

B2: 1-12E (designed binder)
chain: GSHMVSGKIVVIGSSTGGPRSLDMIIPNLPKNFPAPIVVVQHGDGWYGGGAVGTKSLAQRLDSTSELTVKEAEDGEEVKPGFVYIAPGDFHLGLKAQNGKVFFFLDKSGGSYTGEWTWGVRPAVDFTLDKAAEIYKEKTIAVILTGGARYGDLRGGDGTKGAFKVKFYGGTVIAEDKETSVVFGMPKSVIEEGYADYVLPAYKIPEKLIELV
notes: as for B1
EC50 [2]: 165 nM

B3: 1-1B (designed binder)
chain: GSHMVSGKIVVIGSSTGGPRSLDMIIPNLPKNFPAPIVVVQHGEGWYGGGAVGTKSLAQRLDSTSELTVKEAEDGEEVKPGFVYIAPGDFHLGLKAQNGKVFFFLDKSGRGLRGGWSWGVRPAVDFTLDKAAEIYKEKTIAVILTGGAATGSSNGGDGTKGAFKVKFYGGTVIAEDKETSVVFGMPKSVIEEGYADYVLPAYKIPEKLIELV
notes: as for B1
EC50 [2]: 108 nM

B5: 1-12C (designed binder)
chain: GSHMVSGKIVVIGSSTGGPRSLDMIIPNLPKNFPAPIVVVQHGWALNGRYTLGTKSLAQRLDSTSELTVKEAEDGEEVKPGFVYIAPGDFHLGLKAQNGKVFFFLDKSGARDRGREWYGVRPAVDFTLDKAAEIYKEKTIAVILTGGYWEGDYAGGDGTKGAFKVKFYGGTVIAEDKETSVVFGMPKSVIEEGYADYVLPAYKIPEKLIELV
notes: as for B1
EC50 [2]: 91 nM
